The DeepSol protein solubility set

Experiment: soluble on expression in E. coli; label from the status in PepcDB or PDB records

Sequence	soluble on expression in E. coli
MPERLSRMSKKHKMVWGTLNGLDDWDYNVFELQAAIDGDDINCKNDQSGCGALFITMYALVVKYGFLRKFEINERIFLNWLSAVEGGYHANPYHNSMHAADVLHITHYLLSKGGLAELCKLNDRQVLAALFAAAIHDYNHPGINNNFSILTQTYNATLYNDRSVLENMHVASVFELMRNPALNILACFSEEHWRDFRNTVIDMVLATDMSLHEKYMTQFKRRLSEKRPFTEDCDQNLALAMALKLADISNCCRPLPLYLKWSERVSDEFYTQGDRERSLGMSCSPFMDRQTPMIAEGQTSFINYIFIPFLEVMAEFLPSMGFTLGLAAVCKSHRLVG	soluble
GSARDISSTNVTDLTVSPSKIEDGGKTTVKMTFDDKNGKIQNGDMIKVAWPTSGTVKIEGYSKTVPLTVKGEQVGQAVITPDGATITFNDKVEKLSDVSGFAEFEVQGRNLTQTNTSDDKVATITSGNKSTNVTVHKSEAGTSSVFYYKTGDMLPEDTTHVRWFLNINNEKSYVSKDITIKDQIQGGQQLDLSTLNINVTGTHSNYYSGQSAITDFEKAFPGSKITVDNTKNTIDVTIPQGYGSYNSFSINYKTKITNEQQKEFVNNSQAWYQEHGKEEVNGKSFNHTVHNINANAGIEGTVK	soluble
MQDEKNFMSGVKENLDVLFTKLEKFLRTETVIGQPIKVGETTLIPIVTVMFGCGTGGGVGDNKGIKGQGGGLGTGARISPDAVLVIKNDDVQMLPVKKGANLSKLIEMVPEIVSKIKIDKENKEKEEVKKEENLEHHHHHH	soluble
SLSCRKEQGKFYDHLLRDCISCASICGQHPKQCAYFCENKLR	soluble
MGSSHHHHHHSSGLVPRGSHMASMTGGQQMGRGSMNIAVVTDSTAYIPKEMREQHQIHMIPLQVVFREETYREEIELDWKSFYEEVKKHNELPTTSQPPIGELVALYEELGKSYDAVISIHLSSGISGTFSSAAAADSMVDNIDVYPFDSEISCLAQGFYALKAAELIKNGASSPEDIIKELEEMKKTVRAYFMVDDLAHLQRGGRLSSAQAFIGSLLKVKPILHFDNKVIVPFEKIRTRKKAISRIYELLDEDASKGLPMRAAVIHANREEEAAKIIEELSAKYPHVEFYNSYFGAVIGTHLGEGALGICWCFK	soluble
MSFVVIIPARFSSTRLPGKPLVDINGKPMIVHVLERARESGAERIIVATDHEDVARAVEAAGGEVCMTRADHQSGTERLAEVVEKCGFSDDTVIVNVQGDEPMIPAVIIRQVAENLAQRQVGMATLAVPIHSAEEAFNPNAVKVVLDAEGYALYFSRATIPWDRDRFAKSLETVGDTCLRHLGIYGYRAGFIRRYVSWQPSPLEHIEMLEQLRVLWYGEKIHVAVAKAVPGTGVDTADDLERVRAEMR	not soluble
MGSDKIHHHHHHMKLETIDYRSPDAAAQFVQSLRDTGFGVLSNHPIQQSLVEAIYKDWYEFFQSGAKEEFRFNPETQDGFFPADVSETAKGHSVKDIKEYYHVYPWGRIPESLRANILAYYDHANQLAAELLSWVEAHSPDEVKALFTEPLPNMIDGSHKTLLRVLHYPPMKGDEEPGAIRAAAHEDINLLTVLPAANEPGLQVKAKDGTWLDVPSDFGNIIINIGDMLQEASGGYFPSTSHRVINPEGMDKTKSRISLPLFLHPRPDVVLSERYTADSYLMERLRELGVI	not soluble
MKAVSPVRPSGRKAPSGCGGGELALRCLAEHGHSLGGSAAAAAAAAAARCKAAEAAADEPALCLQCDMNDCYSRLRRLVPTIPPNKKVSKVEILQHVIDYILDLQLALETHPALLRQPPPPAPPHHPAGTCPAAPPRTPLTALNTDPAGAVNKQGDSILCR	soluble
MSLSKKFYPNSQAFLLEKKDLKTIDRKINANKGNFGHIYIVANASAGTLAGLGALNFGAGLVSLVAQKSFSPLLMLKEKIENNASAIALGMGLENLDFLKDEILQNTPLILDANCFLSEALLWYLNRKDVVITPHPKEFIKLYKMCFDENLDIETLQKNRFFYARKFSQNYDCVLVLKGANPIIVQKEKLFVVNLGNQALAKGGSGDVLSGMIAAHLGFGFSALEAAKNATLAHGLVAKKYKFNKNSFDALKLIKGLKCLEGHHHHHH	not soluble
MVELKVPMFPESVADGTLAQWNKNEGDFVNEGDILAEIETDKVVLEVPATSSGVLKGIKKHAGDTVLSEESLAIIDTAVSTSEPNQQTTNQGNASEATATGQEIDIKAPVFPESVADGTISEWHKKEGEAVSEGDILAEIETDKVVLEVPATSNGVLTKILKTAGETVLSAELIAKITAGGATATTKSEASVGVSQANNDPHLVPSARKAFNASGLDTAANIEGTGKKGRITSEDVKKAVASVNKPQQQTVVINQGARYEKRVKMTRLRQTIANRLVEVQHTNAILTTFNEVDMSAVMELRNKYKDMFVKEHDTKLGFMSFFIKAATEALKKFPDVNASIDGDEIVYHNYFDIGIAVGTDRGLVVPVLRDTDTKSLAELEADVLDKAIKGRDGKLSLEDMQGGTFTITNGGTYGSMLSTPIINSPQSAILGMHNIVERPVVVKGEIKIRPIMYLALSYDHRIIDGGTSVRFLKMIKELIEDPNRILLQV	not soluble
MGSDKIHHHHHHMQNPFTLTFGRSPLESVDRPVQINEIIENFTADTINQQMFIITGVRGSGKTVMMTEISHRLRENDDWVVIELNPATELLPAMLSKLNSDNICAGLIKSAKLDLSFFGFGVSIEGTQPITDAETAIIKILERLKKSGKRLLITIDEMTNSEYMKVFAGAFQIFVRQELPVFLLGTGLYENIEELQNEKSLTFLYRAPKIQLKPLNNAAIINKYKTIFNISPEKAAQMAGLTKGYPFAFQVLGYLTWNNGGDYNGILGEYEQYLSEFVYDKIWSELSQKDRMVAKGIADVQSGKIKEIRDAIGMETNEFNPYRKRLIKKGIVSGEIRGYVYFTLPLFEEYVIENY	not soluble
MIGKLKKGSSFGGCIRYVTGKDEAKIIASDGVLLGTNAEITQSFELQRQLNPRIKKPVGHIALSFKPEDKPRLTDEFMTKIAIEYMQMMGITKTQFIIIRHHNADNPHCHIVYNRINNESKLISDRNDYRRNEQVTKALKSKYGLTYGTDKSNTNTRKLRNAERAKYEIHNAVKDALKMADSWEKLRSELAKRGVHLEFVYKDKAQTKVQGIRFCKDGYSFKGTQICREYSFGKLNAKFEGTENHVSTRANSAQQYEQGCRKNEQVPFMSENCQDPWDGISSIGLFASANAQTFESFPEDESAKKKKKKRRRGFSL	not soluble
MSRVERLPNGLVVALEERDFPGVAFQLLVPAGAVNDPEGMEGAAALLEGWLWKGAGDLDARALAQALDALGVRRSSGAGLEYTAFAAAFLPEVLDEVFRLYALLLTRPRLPEEGLEAVGHVALQALLSLEDQPARKLLSELRRKVFRSPHGREPLGREEGLKGARAEALKADYRRRYTPKGAILAVAGGVSWERLRAALEPFLAWEGEEALYPAPELSEPHRFVLRRPTAQVQIGLAYPDVGPEDPGFYAARLALEVLSGGMSSRLFTEVREKRGLVYAVSAFPAGVKGQGLLMAYAGTTKERAGETLEVLRAEVERLAEGVTEEELFRAKVGLKTALVMADESIRSRAASMARDLYMLGRVRSLSEIEAAIEGTSLEAVNAFLRAHPYRDPWVGLLGEVEDV	soluble
MRNIQPRRLVTASGQPIVIRTAWPEDAERIVAFVKAVTAEALYLLTTEAEVTVTEDQQRQWLQKMADDPGKLALLAEHDGEMIGFLDFHNGNKRFRHEREKRLSRPGDRHGVACSAP	not soluble
MSKPWLFTVHGTGQPDPLGPGLPADTARDVLDIYRWQPIGNYPAAAFPMWPSVEKGVAELILQIELKLDADPYADFAMAGYSQGAIVVGQVLKHHILPPTGRLHRFLHRLKKVIFWGNPMRQKGFAHSDEWIHPVAAPDTLGILEDRLENLEQYGFEVRDYAHDGDMYASIKEDDLHEYEVAIGRIVMKASGFIGGRDSVVAQLIELGQRPITEGIALAGAIIDALTFFARSRMGDKWPHLYNRYPAVEFLRQI	soluble
TTEENSKSEALLDIPMLEQYLELVGPKLITDGLAVFEKMMPGYVSVLESNLTAQDKKGIVEEGHKIKGAAGSVGLRHLQQLGQQIQSPDLPAWEDNVGEWIEEMKEEWRHDVEVLKAWVAKATKK	soluble
